Biological target: transferrin receptor 1 (TfR1) (human (endogenous in gastric cancer patient tissue and human GC cell lines)) (UniProt P02786)
Sequence (P02786 whole entry): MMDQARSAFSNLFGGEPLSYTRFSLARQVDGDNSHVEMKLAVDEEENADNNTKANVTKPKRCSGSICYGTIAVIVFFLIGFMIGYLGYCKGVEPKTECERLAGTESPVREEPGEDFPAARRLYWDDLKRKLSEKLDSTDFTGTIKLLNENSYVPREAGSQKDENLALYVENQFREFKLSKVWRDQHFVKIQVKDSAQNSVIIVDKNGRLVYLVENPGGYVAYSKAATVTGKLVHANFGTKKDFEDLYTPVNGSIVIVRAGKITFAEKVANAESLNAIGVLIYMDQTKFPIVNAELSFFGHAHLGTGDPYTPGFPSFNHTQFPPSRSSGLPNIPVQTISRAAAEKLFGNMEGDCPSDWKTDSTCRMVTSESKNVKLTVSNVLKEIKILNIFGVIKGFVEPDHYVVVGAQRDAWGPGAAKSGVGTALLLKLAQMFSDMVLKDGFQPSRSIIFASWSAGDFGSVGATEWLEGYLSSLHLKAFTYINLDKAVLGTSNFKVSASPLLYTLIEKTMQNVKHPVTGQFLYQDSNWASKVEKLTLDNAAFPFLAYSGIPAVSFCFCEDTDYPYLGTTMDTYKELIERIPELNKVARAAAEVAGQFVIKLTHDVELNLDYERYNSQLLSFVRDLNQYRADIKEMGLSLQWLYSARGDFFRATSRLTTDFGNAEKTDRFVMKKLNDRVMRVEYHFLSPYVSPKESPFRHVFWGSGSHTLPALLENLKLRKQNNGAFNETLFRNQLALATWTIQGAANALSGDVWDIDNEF

Sequence of doxorubicin-loaded HFn nanocarrier (HFn-Dox) (P02794 whole entry): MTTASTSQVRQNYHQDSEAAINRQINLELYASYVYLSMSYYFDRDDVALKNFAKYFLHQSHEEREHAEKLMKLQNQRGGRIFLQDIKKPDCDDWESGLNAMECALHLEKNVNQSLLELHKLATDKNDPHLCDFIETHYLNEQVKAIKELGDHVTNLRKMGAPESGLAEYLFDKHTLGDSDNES

tumor growth inhibition (TGI) rate in TfR1-positive GC-PDX mouse models treated with HFn-Dox (against 41.6% for free Dox): 91.1%
Substance: doxorubicin-loaded HFn nanocarrier (HFn-Dox) (from UniProt P02794 1-183) (natural protein)

Reference: PMC7002446
